PMC5718245

Assays:
[1] = target: PSD95 PDZ3 (Rattus norvegicus) (UniProt P31016); conditions: cited from earlier work
[2] = target: GST-PDZ3 fusion protein (PDZ3 domain of SAP97); assay: SPR; Biacore3000; anti-GST antibody immobilised, GST-PDZ3 captured (1200-1700 RU), GST on the reference cell subtracted; peptides as analytes at 62.5 nM to 12.8 µM, 30 µl/min; HBS (0.01 M HEPES, 0.15 M NaCl, 3 mM EDTA, 0.005% Surfactant P20); steady-state affinity fit, 1:1 model

Chain of UniProt P31016 (P31016 310-396): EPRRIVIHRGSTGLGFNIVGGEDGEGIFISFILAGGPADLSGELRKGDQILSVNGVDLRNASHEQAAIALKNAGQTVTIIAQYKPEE

Molecule | Kd [1] | Kd [2]
CRIPT C-terminal 9 amino acids (from UniProt Q792Q4) | 1 µM | –
AMCGKKVLDTKNYKQTSV [peptide CHRK1 (C-terminal 18 amino acids of CRIPT)] | – | 6.57 µM
